# According to the DeepSol protein solubility set:
# Assay: soluble on expression in E. coli; label from the status in PepcDB or PDB records
row,Sequence,soluble on expression in E. coli
1,GPGSMERLLPSMQQRFAELAHTGVGESSLTVEALFQRYQRVLKVGEGTFGEVFVLYDTVAHTYITMKRMHTLLSLRRRSLGIHRCTFREVELLAALQHPNIVQVLDYHILSDGSLVMLMPVIAHDLTSLLRRWPSTPQSSDHGTASTAASTRPRMPLHVVKCIFRQIIAGVAYLHKHKVVHRDLKPSNVMVDHTGVVKLIDFGWSRFCAAAGAMTGPPCVTAFRPPEVLMGAHNHYTFSLDIWCCGCILFEMLTGGTPFAKSRNEAECLANIVDWLGSPPSSSEVYYRRAARCPFPLAPGRPDTFAQRCSNYGIKSAEAMFLRRMLCLEPGERATAEALLRDPWFTTAPTMCVPRAVPLPAHNMFRLVEVKRKELEH,not soluble
2,GPGSMERNPAHPLDATAKLPVRQKEVTFDSLCVNADDRFVEGLSGKSEERRGFRPNTKLYAANAARTRGRTGGASDLGFTESLPTLNEVIGEEKISHLGRLRARPPRAAEGSTDVIPVARVKAKSSLTRPVHATPTSIPSTRSLWVEGSSVLNQDVGHASAALTHLSDCVAQERRLKVEWEAARLAKIRALRAVVKVFMQSFIDRGSFARSTSVGGKVMSDTLAVARCSVITNTLVGTVQNFMRAFRSRRLCAARGPVSGLQLFPNIAGQESDRFTLSLYSSAPGGAESSVNESYVSPNHSVSDYLEEEEVSRIKQLYFDYFDCEAVSISSAVASGSDMSIFAYSAASSISRPSSPVSRGGDHSSFSHCASTTM,not soluble
3,GPGSMETAIQQDPVYVRLGVFRRLHGSNEVEWLMLRRINREMRPPDIPPISLKLPGKWTLLYERYKEAAIRTLWEETGITVDPTSVFPTAQLYQTSPKYYWRVPVRYFVAEVPHDVRVEGPQVVPTQYMRNWDVRLLRQSPDPIDRAWAQLADPITGCAWMKAPMIDELQKPLRGEKYMATRYTPPPYSNLQEVVGLGDGDQDTQNKETEAADPNA,not soluble
4,GPGSMFFLTRFKLGMADVTAAIGSGKCGEVLRKLNEKKAVREREENIDYRRALCFLANSQDVFHARQALLEELRHFPNNTAARTLLLEVNETVRPLLMPPKELLKSEPLFGLLCDALLDHTMLTWTRLYSLYRLSKEVCSKEGEGGALMECGVSGGGSVVLLAVVAAHYSKKPRKIYALDTFSGMPEPTTHDNLEEDGNLKPAESTSWGSGTCSATVENVRQLAKNFDVEEGLVVIPGLFHETMPKTLREISDEGISMLHVDADWYESTRCALELAWPMVKQGGMVQVDDYHYWLGCRKAVDEFAQREESEHRPLPILQNVDGNAVYFTKP,not soluble
5,GPGSMLYDEEECIKVIVVGDGNVGKTCMLRRFVRGDFVEQYRKTIGAEFMEKDVFLRSSKTMVKLMLWDTAGQEVFNALTQAYYRGAGAAILTFSTVDRDSLMSIAGWKQRVESVCGCITMVLCQTKFDLSHEAVITHAEAEGLASQLEVPLFRVSAKDDFNVRQLFEFTAQQCVENSAQDEAPVDDMP,not soluble
6,GPGSMMELPMEMNVDGVPMVLSKVSYSPMLDFGGTFSYRRYCFVGELQPEGYVNWFFAPLEGYKDKRLRVHESAVKEGALNHLVFMRLGELSFRQYKLKHIPSPTEQPHSPVTPQGDSTKQLMGHAHPHFNYIFEAMRQDQASSPSPRSSSIGSDCTYHSSKESCESLQMSSSLVDLPGKRLSNASLRSGVRPPLEARRGAVCDDEGFLPPVRSLKKSSERSQEL,not soluble
7,GPGSMMEYADAYVGGGGRLRPGAQGSTTATGASRPYLEQRTVAPVTSALGQELDRLVGGTLAAQEYRDRLEALTRSVQASDEKVLNLTRLVKLSQSIQEEKEADLRRQNDELRARLKRQEQLTAQLQRQLEGMQGAVDAQALHHVVERLEGQMSACRGKQEEQWVAVQQRIGELEDRLQRASTCTAERCEERLMQLDERLQQVTQSTADATNQWAKRNFVRFKEQVDSLRADLDDVRGGQKELKSTVQSASCRAEIEYKKVLLLLQQKTKEADALTSLVEKELQHLQKVAHRHQILASKDITPAFEFDEKPYDALKFAAGEGKRRGAEAAAERRRR,not soluble
8,GPGSMMRRVGDYEILDVVGEGAYSKVKRVRHIPTGCMFVAKIVPKTNQQVENDVRLEISILRRLKHKNIVQLIEILESTNNYYIILEPVMGGDLCDIIVGMDRPLPEQDVAALLIQLVAGVRACHRNGVAHRDLKPENLLLGTDGVLKISDFGLSRLHRESNFQASTNEYAHTLTGTLAYLAPEVFGGSYDAFRADIWSMGCIAYVLLTQNFPFGSTTDPHALEVRIRNGEVSVMPSSVSAEAKNLCKWLLSPRPEDRPTLDAVAQHDFFKRYLPAEYLRMTANRKSPIVHGANMNEFSSQVQEEAPSCSPSTATAKRKHQYVRSGSAARTSPSSSAVAGAATSSNRSSESGRDREDLVSHGTQGESDPGGYCGDV,soluble
9,GPGSMQERESLLKEYKGLLANLEEAFDLKRSNEADQEVDDLIDETKAELRTVVASLNASEVIEVTKDVTKVVDADGNTVILYSKVAPYEVHFDNAMWYSCVITDVVQPETALERVRYKAWILGYNVEEETYSEQLRVWQPQAAEGETTLRSGVACHAVNPRSGRFESAKVVRLTLSDTVILTFSDVVEMTKEVGETDGAGAAGELATGKRDPSGGDTSAVTEEVPLSHVRVGRFYQQLRKRSTLTSEERARRRAQNVERKRVRRETKRQQDANVASQNANDWQRLVEDMGLATGCAKKRR,soluble
10,GPGSMRNLLGESAVSSLVIEEPTKVAMTTSPTAVLNSSMSTDTDSTAVSPARVKGVSPQTKANGNSNGDGSTAIRGQSNDKQLEAPTEVQYRAVEVMVVDRGTQTTTTVGCQTDPEPSQSPVGGAMPFHRGFCPRCTCCCRGVVRDYPWRNAREEEDRSSRFQEELETIQKSIDMMIARYNLPPPPMPRY,not soluble
11,GPGSMRSLVVHLLSYTQRFASAKPTILYVPQKTLIAEQVMEDEFKLSHTFPSLRIASLDLDYVFLEEKFFTMTLPLSFKSVFADGDLSNLTWIARLLLKLQTARFGAIRHIRGKGSNAAKVIQLLQRMQNNISHDFITDIPSEVETLIIIDRSVDFVTPLMTQLTYEGLIDELYDIENCEVQFPFSLGESSGVGASEKVVLNSTDRMFAEIRDRSFTGVGSVLYQKSIWVKQNYDKRKEVQQLKELKEFMKGLPEMQEMHRLIGIHTNVATEISKTTQRTDFRKRIMFEHNIIQQTNEGDVLRYIEDLVFRKEKFEVVLRLLALLSLVNSGLREKDLLGLKENMMLVYGIPHVITAFFMLERCGLLCAQSGKGSSYSTIRKQLRTWNSSVPEGQPNDIAYAYGGYAPPFVRMVDTLLRNPQAWDAEDDAPSLLPGEKKELMNDVEIAGTTKTAIVFVIGGITASEVSALRFVEERLSSGGRPHRIFIGTTDIISGNRMIRSLLPFEPAR,not soluble
12,GPGSMRVNDSITVQQLADEYCITSVVECDATGSVQPRAVALDSPLDVLHGGKYYIARRDVKHFAREPRVTFRGKVTVREFNATHGVIGREGETNANRGQAVAADPVGVAPSRKRPEREEDLFDSGTRTEIYAKEYEFVPFVGDLYNDGRNGMIHLKDVKKLCESVDLDEVEFRARHVQAEKILTHAKQLLLSYADGNGGRTSPEY,not soluble
13,GPGSMSFPKEWTDTWNLFDDRRSGSVTHSDVKHIIRSLGRRYTEAEFNELLHDIPDPIPYQSFVEIMQKPYNGPTEDDLRTALRAFDGNDSGQLKLSELITLLTSLGEKMPEAEVKQLLSEVHTNEDGRVNIDDLARFLCTPLPTTQPDIAELQKQLAGIS,soluble
14,GPGSMSLKKKTFKQRIRKNDMKQRHQIGFGLRKRMGAARRIRNRYDSVDDGTRPMEMIVSEIAEGTAVPSQEAVLDPRSLTDLLLRPAESPVSNNSASASANVATTSCAVASKSNGCSSALWKRGSSKSSALLTSVPLASEKVLPSLPLAPDDPLALPDTRVFEEEERQQRLAREAAARQNENKNLYRHSGQPYLFWERVGLHPALLQALRDLHFTHPTPVQEEVLPNVLASGDEGLARQRSSEADKKSKKHKRAGGAADSAGHDVVVSAETGSGKTLVFALPILQDLLTTLDTERVSAVTPTSSAEAVHEKATGQASSDAAWRERS,soluble
15,GPGSMSTSQPIVKPFIYLRIPSEDARPVEELHFNGHNEAELRHTLTRCFRQSLLSDDQKKDMARHLADKASESAKKHAVKGNGDASAAGSGAEPPVDVEQQQAAMIDQYLEQASYEIIPVTMPMRSTQYIGTSLYIDDSGAFKDLPLNYRASKLAQREIRGDAFLLSNHDDPALDEWGRVDCPLQRYEELYANPPQIAYDPSNQAQMTQAAMLRETETKKISLEDYEKAQKAKEDGNRLFAANDLPAAVQAYSMTVDLTDGRRDLLPNEEAATQLRLSALLNRCLCFTRLKKFPEAVRDAQAAAYLDPKSMKAYYRLTYALCGAQEYEAAAQACEKYAQLGGAEEDVTAMRTAVAAGETEVKKAQKQIFSKMFRS,soluble
16,GPGSMSVSATPYKRQDAITAKTVLLGESAVGKSSIALRFARNEFSSNQETTIGAAFLSRSVTVSATSQSGGGGAVANAASGTIKFEIWDTAGQERYRSLAPIYYRGACGALVVYDITSAESLKKAQMWMRELRANADPTLLIILVGNKKDMESLRQVSYEDGAAVAQEEDVNGFFEVSAKENVNVEEVFAKLARLLLEHGLGANSGPGSLSGPRGAQRLEPPTRQQKKEGGCAC,not soluble
17,GPGSMTDALAKPIRVCVLACSYEGSDSELRAYEGDLIQTPQNYFCSEDAQCTFHLELIKKATAYRQIRQLVMSGKFDVFYNQCDGAKDEDRAGVEVVEALEEFKVPYTGAISKYYEMSKPDMKLVAYYYNIATANYIVLAPGDDIESLCGDLQFPCIIKHISGYSSVGMDKSCKVYDMAHLVDRAARFMAEYQFALVEEFVNGDEATILACSDSTQPEGVRVFPPVQVAFPEGEDFKHFQLKWASYEGMKWTQVPQEDPAMQNMIDIARSAFKRMMGGVGYGRIDVRIDRQKNHKVVFLEINPNCGIMYPYGQEGSADWILRLNRGFQQREFAMLQIREAITRCQRERLLYVRRFDPVRGYHLRAAEDISVGTIIFQDECRPVRLCTKPYALQHFSKADYVDFQHNAWPVGRDGHYYALWDHDPAQWRAFNHSCEPNMSFAPMRSLDVVALRNIPKGEELTMDYRQFMDSTMPGFQCNCGTEKCEGFVSPGSLVDSPTAKIASQPTVALRHNIAVRLNPI,soluble
18,GPGSMTEKPAKEPPLPRDLKAQFDVLAGTRWDGVGDDADAAEQLSQLRQEWKALGNACYGKGYFLAAIRCYSRLLEVPGGDTAQIRSNRSAAYLQSPMLVGPSLALKDAEKAVELDPQWFKAHLRVGDAHRKRGHFAEAEAAYREALARQPECATALAGLRALQVESAGLPAAAATFPRGHAERTPYHNAPPSPRSLSSRTTAHAVAVAQAKEEELQLTQEQLVHKWKADISTREGRTGCRPRQASLSQADRQHGAAIKQALLARFRDKLESNGEFSAILRNRCEEAMLRGEGINYRDADKLRNTYSHATNGIGLGISSDAYKEYTGRVDHRTW,soluble
19,GPGSMVLIECKRLPKDEYSKDYDVFLVSMPGSTNIGEATDALQKMRNTRVRIKWMCAAAKQLAKDFCSDEQKHHLLGAVEDAERYMAIERAENRQLCSQEDLDAHIAAFKGSAMILFPAECSGTDAVKRLALVLDDENTTDLERSKAHRLLSIIDDGAATEDILQGPAVMWWSGKPLDRNADFTKYVGKNEKTKITMKLAAKDAPPPPREPAVDAKTQSEMMAFYFKKQEEMKKLIEDEDLTYGNSAWADPRGLRSQLHGFDGVKYKPG,soluble
20,GPGSMVLVLVVGDTWVPQRASGVPEVFCKMFSPGRIHKLLITGGVGSKEMYDYLRTIAPEVHCVTSSVDRQWADHMPESVVLTVEGLKLGLIHGHQVPVGDKDSLAAVQRELDVDVLVSGSTHQSKYFEFDSHLFVNPGSLSGADTEYDVNVVPSFMLLDIQDKSVVTFIYQFHPEDETGGGGTATEDLAAAGMVPGLRIKKKEWAKE,not soluble
